In patent US20210300993A1 (AVALON GLOBOCARE, published 2021):

Assays:
IFNγ [1] = target: T1, IFNγ (UniProt P01579 24-166, limits assumed); experiment: MicroScale Thermophoresis, 5 nM NT647-labeled receptor fusion against a gradient of ligand, 25 C
T1 sequence (looked up): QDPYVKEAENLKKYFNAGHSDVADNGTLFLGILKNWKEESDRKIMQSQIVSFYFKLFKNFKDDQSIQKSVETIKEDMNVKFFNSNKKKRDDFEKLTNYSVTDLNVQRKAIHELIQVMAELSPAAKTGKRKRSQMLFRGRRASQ
Experimental: (§1) The affinity of QTY modified cytokine receptor fused with Fc of IgG for their respective native ligands was measured using MicroScale Thermophoresis (MST). Changes in thermophoretic movement for labeled proteins upon ligand-binding were recorded and plotted as a function of ligand concentration.
(§2) MicroScale Thermophoresis (MST) is an optical method detecting changes in thermophoretic movement and TRIC of the protein-attached fluorophore upon ligand binding. Active labelled proteins contribute to the thermophoresis signal upon ligand binding. […] Herein ligand binding experiments were carried out with 5 nM NT647-labeled protein in 1× PBS, 10 mM DTT buffer with different concentration of arginine, against a gradient of respective ligands on a Monolith NT.115 pico instrument at 25° C. Synthesized receptors were labeled with Monolith NT™ 2nd generation protein labeling kit RED-NHS (NanoTemper Technologies) so as to obtain unique fluorescent signals. MST time traces were recorded and analyzed to obtain the highest possible signal-to-noise levels and amplitudes, >5 Fnorm units. The recorded fluorescence was plotted against the concentration of ligand, and curve fitting was performed using the Kd fit formula derived from the law of mass action. For clarity, binding graphs of each independent experiment were normalized to the fraction bound (0=unbound, 1=bound). MST experiments were performed in the Center for Macromolecular Interactions at Harvard Medical School.

IFNγ [2] = target: T1, IFNγ; experiment: MicroScale Thermophoresis (MST), fluorescently labelled receptor fusion titrated with IFNγ
From the text: (§3) FIG. 3A-3D. MST ligand binding measurements. The receptors were labeled with fluorescent dye. The ligands were purchased commercially from and dissolved in di water. (FIG. 3A) IL4Rα^QTY-Fc with IL4; (FIG. 3B) IL10Rα^QTY-Fc with IL10; (FIG. 3C) IFNγR1^QTY-Fc with IFNγ; (FIG. 3D) […].
as §2, with “MST experiments were performed in the Center for Macromolecular Interactions at Harvard Medical School.” left out

IL10 [3] = target: T2, IL10 (UniProt P22301 19-178); experiment: MicroScale Thermophoresis (MST), fluorescently labelled receptor fusion titrated with IL10
T2 sequence (P22301 19-178 limits assumed): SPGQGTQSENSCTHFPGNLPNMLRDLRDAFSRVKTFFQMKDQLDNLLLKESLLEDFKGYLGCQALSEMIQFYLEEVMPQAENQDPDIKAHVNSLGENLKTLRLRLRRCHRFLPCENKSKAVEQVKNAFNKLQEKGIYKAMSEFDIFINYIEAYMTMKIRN
From the text: as §3
as §2, with “MST experiments were performed in the Center for Macromolecular Interactions at Harvard Medical School.” left out

IL10 [4] = target: T2, IL10; experiment: MicroScale Thermophoresis, 5 nM NT647-labeled receptor fusion against a gradient of ligand, 25 C
Experimental: as §1, §2

IL29 [5] = target: T3, IL29 (UniProt Q8IU54 20-200, limits assumed); experiment: MicroScale Thermophoresis (MST), fluorescently labelled receptor fusion titrated with IL29
T3 sequence (Q8IU54 20-200 limits assumed): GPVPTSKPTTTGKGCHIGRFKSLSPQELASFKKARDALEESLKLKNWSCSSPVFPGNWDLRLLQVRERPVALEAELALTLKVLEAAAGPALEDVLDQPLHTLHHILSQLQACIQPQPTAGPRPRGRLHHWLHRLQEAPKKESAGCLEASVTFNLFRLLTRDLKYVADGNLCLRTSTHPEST
From the text: as §3
as §2, with “MST experiments were performed in the Center for Macromolecular Interactions at Harvard Medical School.” left out

IL29 [6] = target: T3, IL29; experiment: MicroScale Thermophoresis, 5 nM NT647-labeled receptor fusion against a gradient of ligand, 25 C
Experimental: as §1, §2

B1: IFNγR1^QTY-Fc (HUMAN Interferon gamma receptor 1-Fc fusion) (Fc fusion)
chain: EMGTADLGPSSVPTPTNVTIESYNMNPIVYWEYQIMPQVPVFTVEVKNYGVKNSEWIDACINISHHYCNISDHVGDPSNSLWVRVKARVGQKESAYAKSEEFAVCRDGKIGPPKLDIRKEEKQIMIDIFHPSVFVNGDEQEVDYDPETTCYIRVYNVYVRMNGSEIQYKILTQKEDDCDEIQCQLAIPVSSLNSQYCVSAEGVLHVWGVTTEKSKEVCITIFNSSIKGSQWTPTTAAQQQYQTQSQTYTCFYIKKTETSQVAPAHHHHHHHHHHGSKLVDPRGPTIKPCPPCKCPAPNLLGGPSVFIFPPKIKDVLMISLSPIVTCVVVDVSEDDPDVQISWFVNNVEVHTAQTQTHREDYNSTLRVVSALPIQHQDWMSGKEFKCKVNNKDLPAPIERTISKPKGSVRAPQVYVLPPPEEEMTKKQVTLTCMVTDFMPEDIYVEWTNNGKTELNYKNTEPVLDSDGSYFMYSKLRVEKKNWVERNSYSCSVVHEGLHNHHTTKSFSRTPGK
modifications: labeled with NT647 RED-NHS fluorescent dye for MST
B1 was tested, and the Kd (IFNγ [1]) was 6.2 nM and the “EC50 (read off the curve)” value (IFNγ [2]) was about 9 nM.

B2: IL10Rα^QTY-Fc (HUMAN Interleukin-10 receptor subunit alpha-Fc fusion) (Fc fusion)
chain: HGTELPSPPSVWFEAEFFHHILHWTPIPNQSESTCYEVALLRYGIESWNSISNCSQTLSYDLTAVTLDLYHSNGYRARVRAVDGSRHSNWTVTNTRFSVDEVTLTVGSVNLEIHNGFILGKIQLPRPKMAPANDTYESIFSHFREYEIAIRKVPGNFTFTHKKVKHENFSLLTSGEVGEFCVQVKPSVASRSNKGMWSKEECISLTRQYFTVTNTTTYYAYTQQQSGAQAYCQAQQLYVRRRKKTETSQVAPAHHHHHHHHHHGSKLVDPRGPTIKPCPPCKCPAPNLLGGPSVFIFPPKIKDVLMISLSPIVTCVVVDVSEDDPDVQISWFVNNVEVHTAQTQTHREDYNSTLRVVSALPIQHQDWMSGKEFKCKVNNKDLPAPIERTISKPKGSVRAPQVYVLPPPEEEMTKKQVTLTCMVTDFMPEDIYVEWTNNGKTELNYKNTEPVLDSDGSYFMYSKLRVEKKNWVERNSYSCSVVHEGLHNHHTTKSFSRTPGK
modifications: labeled with NT647 RED-NHS fluorescent dye for MST
For B2, the “EC50 (read off the curve)” value (IL10 [3]) was about 4 nM and the Kd (IL10 [4]) was 1.6 nM.

B3: IFNλR1^QTY-Fc (HUMAN Interferon lambda receptor 1-Fc fusion) (Fc fusion)
chain: RPRLAPPQNVTLLSQNFSVYLTWLPGLGNPQDVTYFVAYQSSPTRRRWREVEECAGTKELLCSMMCLKKQDLYNKFKGRVRTVSPSSKSPWVESEYLDYLFEVEPAPPVLVLTQTEEILSANATYQLPPCMPPLDLKYEVAFWKEGAGNKTLFPVTPHGQPVQITLQPAASEHHCLSARTIYTFSVPKYSKFSKPTCFLLEVPEANWAYQTQPSQQTQQQTTAAGGTTWKTLMGNTETSQVAPAHHHHHHHHHHGSKLVDPRGPTIKPCPPCKCPAPNLLGGPSVFIFPPKIKDVLMISLSPIVTCVVVDVSEDDPDVQISWFVNNVEVHTAQTQTHREDYNSTLRVVSALPIQHQDWMSGKEFKCKVNNKDLPAPIERTISKPKGSVRAPQVYVLPPPEEEMTKKQVTLTCMVTDFMPEDIYVEWTNNGKTELNYKNTEPVLDSDGSYFMYSKLRVEKKNWVERNSYSCSVVHEGLHNHHTTKSFSRTPGK
modifications: labeled with NT647 RED-NHS fluorescent dye for MST
For B3, the “EC50 (read off the curve)” value (IL29 [5]) was about 10 nM and the Kd (IL29 [6]) was 11.5 nM.
